Where a chain is given by its changes, count along the chain named.
B1: humanized anti-GPRC5D antibody 29H2 (antibody, human IgG1, kappa, V domains shown)
VH: QVQLVQSGAEVKKPGASVKVSCKASGYTFTTHYMYWVRQAPGQGLEWMGGINPSNGATNFNEKFKTRVTLTVDKSTSTAYMELSSLRSEDTAVYYCTRVGGLSYTMDYWGQGTLVTVSS
VL: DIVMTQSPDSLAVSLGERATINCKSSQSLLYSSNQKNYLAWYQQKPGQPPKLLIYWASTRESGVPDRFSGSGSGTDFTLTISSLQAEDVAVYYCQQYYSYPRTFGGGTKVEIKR
notes: Human IgG1 / kappa
B2: humanized anti-GPRC5D antibody 29H6 (antibody, human IgG1, kappa, V domains shown)
VH: B1 VH with M48I, R67K, V68A
VL: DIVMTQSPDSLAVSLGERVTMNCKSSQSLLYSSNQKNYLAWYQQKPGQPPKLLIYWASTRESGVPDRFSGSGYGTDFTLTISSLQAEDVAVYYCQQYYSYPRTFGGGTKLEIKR
notes: Human IgG1 / kappa
B3: humanized anti-GPRC5D antibody 29H24 (antibody, human IgG1, kappa, V domains shown)
VH: B1 VH with R38K, M48I, R67K, V68A, T76I, S85R, E89D
VL: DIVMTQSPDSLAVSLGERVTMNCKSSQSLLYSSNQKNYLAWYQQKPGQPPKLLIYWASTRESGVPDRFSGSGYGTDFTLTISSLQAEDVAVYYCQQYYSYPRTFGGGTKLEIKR
notes: Human IgG1 / kappa
B4: humanized anti-GPRC5D antibody 29H20 (antibody, human IgG1, kappa, V domains shown)
VH: B1 VH with M48I, T76I, S85R, E89D
VL: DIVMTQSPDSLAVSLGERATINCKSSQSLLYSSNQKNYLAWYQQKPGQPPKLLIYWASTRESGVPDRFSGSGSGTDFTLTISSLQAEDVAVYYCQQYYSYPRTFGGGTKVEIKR
notes: Human IgG1 / kappa
B5: humanized anti-GPRC5D antibody 29H21 (antibody, human IgG1, kappa, V domains shown)
VH: B1 VH with M48I, T76I, S85R, E89D
VL: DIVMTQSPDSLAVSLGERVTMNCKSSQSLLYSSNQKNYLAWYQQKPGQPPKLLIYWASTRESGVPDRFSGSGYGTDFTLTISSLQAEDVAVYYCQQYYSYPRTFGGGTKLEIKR
notes: Human IgG1 / kappa
B6: anti-CD3/GPRC5D bispecific antibody Bi-29H6-1 (bispecific antibody)
chain: EPKSSDKTHTCPPCPAPEAAGGPSVFLFPPKPKDTLMISRTPEVTCVVVAVSHEDPEVKFNWYVDGVEVHNAKTKPREEQYNSTYRVVSVLTVLHQDWLNGKEYKCKVSNKALAAPIEKTISKAKGQPREPQVCTLPPSRDELTKNQVSLSCAVKGFYPSDIAVEWESNGQPENNYKTTPPVLDSDGSFFLVSKLTVDKSRWQQGNVFSCSVMHEALHNHYTQKSLSLSPGK
heavy: not shown
light: not shown
B7: anti-CD3/GPRC5D bispecific antibody Bi-29H6-3 (bispecific antibody)
chain: B6 chain
heavy: not shown
light: not shown
B8: anti-CD3/GPRC5D bispecific antibody Bi-29H6/23L2 (bispecific antibody, human IgG1, kappa, L234A L235A)
heavy 1: QVQLVQSGAEVKKPGASVKVSCKASGYTFTTHYMYWVRQAPGQGLEWIGGINPSNGATNFNEKFKTKATLTVDKSTSTAYMELSSLRSEDTAVYYCTRVGGLSYTMDYWGQGTLVTVSSASTKGPSVFPLAPSSKSTSGGTAALGCLVKDYFPEPVTVSWNSGALTSGVHTFPAVLQSSGLYSLSSVVTVPSSSLGTQTYICNVNHKPSNTKVDKKVEPKSCDKTHTCPPCPAPEAAGGPSVFLFPPKPKDTLMISRTPEVTCVVVAVSHEDPEVKFNWYVDGVEVHNAKTKPREEQYNSTYRVVSVLTVLHQDWLNGKEYKCKVSNKALAAPIEKTISKAKGQPREPQVCTLPPSRDELTKNQVSLSCAVKGFYPSDIAVEWESNGQPENNYKTTPPVLDSDGSFFLVSKLTVDKSRWQQGNVFSCSVMHEALHNHYTQKSLSLSPGK
heavy 2: not shown
light: not shown
B9: anti-CD3/GPRC5D bispecific antibody Bi-29H6-2 (bispecific antibody, human IgG1, kappa, L234A L235A)
heavy 1: B8 heavy 1
heavy 2: not shown
light: not shown
B10: anti-CD3/GPRC5D bispecific antibody Bi-29H6GE/23L2 (bispecific antibody, human IgG1, kappa, L234A L235A)
heavy 1: B8 heavy 1 with G56E
heavy 2: not shown
light: not shown
B11: anti-CD3/GPRC5D bispecific antibody Bi-29H6-5 (bispecific antibody, human IgG1, kappa, L234A L235A)
heavy 1: B8 heavy 1 with N55S
heavy 2: not shown
light: not shown

Target: T1, human GPRC5D protein (human, UniProt Q9NZD1 1-345)
T1 construct: NCI-H929 cells express it endogenously in the functional assays; also called HuGPRC5D; huGPRC5D
T1 sequence (Q9NZD1 whole entry): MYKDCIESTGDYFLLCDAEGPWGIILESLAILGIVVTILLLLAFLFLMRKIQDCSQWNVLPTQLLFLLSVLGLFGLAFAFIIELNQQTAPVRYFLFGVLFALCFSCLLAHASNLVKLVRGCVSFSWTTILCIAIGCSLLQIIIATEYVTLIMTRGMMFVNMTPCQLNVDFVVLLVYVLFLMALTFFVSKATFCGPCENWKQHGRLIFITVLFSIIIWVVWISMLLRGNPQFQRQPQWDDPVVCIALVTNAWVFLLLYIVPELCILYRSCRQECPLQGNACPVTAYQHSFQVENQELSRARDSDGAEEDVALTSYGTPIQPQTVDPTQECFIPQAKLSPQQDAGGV
Assay: flow cytometry, HEK293T-HuGPRC5D cells (sheet: 293T-huGPRC5D), PE anti-human IgG Fc secondary, MFI
Experimental: Whether the anti-GPRC5D humanized antibodies in the present invention could bind to the human GPRC5D protein stably expressed on the cell surface was determined by cell binding experiments. The HEK293T-HuGPRC5D cell line shown in Table 2 was subjected to enzymatic digestion to obtain a single cell suspension of the HEK293T-huGPRC5D cells. The single cell suspension was centrifuged at room temperature at 400×g, and then the medium was discarded. The cell pellet was washed once with PBS and then resuspended in the serially diluted anti-GPRC5D humanized antibodies and the murine chimeric antibody 29H12C9 (at an initial concentration of 166.67 nM, 4-fold gradient dilution, 8 concentration points in total), and the cells were incubated at 4° C. for 30 min. The cells were washed once with PBS, and then fluorescent secondary antibody R-PE-conjugated AffiniPure Goat Anti-Human IgG, Fcγ Fragment Specific (Jackson ImmunoResearch, Cat #109-116-098) diluted in a 1:200 ratio was added. The cells were incubated in the dark at 4° C. for 30 min. The cells were washed twice with PBS and then resuspended, and finally, two-channel fluorescence signals were detected using a Beckman Cytoflex flow cytometer.

| binding result | Binder |
| --- | --- |
| binds | B1 |
| binds | B2 |
| binds | B3 |
| binds | B4 |
| binds | B5 |

Target: T1, human GPRC5D protein
Assay: flow cytometry, HEK293T cells stably expressing human GPRC5D (sheet: 293T-huGPRC5D), PE anti-human IgG Fc secondary, MFI
Experimental: (2) Whether the anti-CD3/anti-GPRC5D bispecific antibodies in the present invention could bind to HEK293T cells stably expressing the human GPRC5D protein was determined by cell binding experiments. […] The plate was centrifuged at room temperature at 400×g, and then the supernatant was discarded. The cells were washed twice with PBS and centrifuged. The supernatant was discarded. The cell pellet was resuspended in fluorescent secondary antibody R-PE-conjugated AffiniPure Goat Anti-Human IgG, Fcγ Fragment Specific (Jackson ImmunoResearch, Cat #109-116-098) diluted in a 1:200 ratio. The cells were incubated in the dark at 4° C. for 30 min. The cells were washed twice with PBS, and 100 μL of PBS was added to each well to resuspend the cells. Fluorescence signals were detected using a Beckman Cytoflex flow cytometer.

| EC50 (read off the curve) | binding result | Binder |
| --- | --- | --- |
| ~6 nM | – | B6 |
| ~10 nM | – | B7 |
| ~3 nM | – | B8 |
| ~2 nM | – | B9 |
| ~3 nM | – | B10 |
| – | binds | B11 |

From patent US20250092135A1 (NANJING LEADS BIOLABS, published 2025)
